Test results: patent publication US20260055150A1 (REGENTS OF THE UNIVERSITY OF MICHIGAN, published 2026)
Values belong to the binder of their own block, whether it stands above or below them. Where no end group is shown, it is not given here.

Key:
[1] = target: T1, claudin-1 on colonic patient-derived organoid cells (human, UniProt O95832 1-211); experiment: ex vivo immunofluorescence staining of resected tissue
T1 construct: whole, on cells; also called CLN1
T1 sequence (looked up): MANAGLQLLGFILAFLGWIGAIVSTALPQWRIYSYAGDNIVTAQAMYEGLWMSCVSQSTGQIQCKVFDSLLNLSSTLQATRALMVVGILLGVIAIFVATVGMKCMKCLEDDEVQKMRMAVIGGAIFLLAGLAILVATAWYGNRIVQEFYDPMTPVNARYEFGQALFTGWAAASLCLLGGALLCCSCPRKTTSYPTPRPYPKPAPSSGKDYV
Text: After completion of in vivo imaging, the results were validated using IF.

[2] = target: T2, epidermal growth factor receptor (EGFR) on patient-derived organoid cells (human, UniProt P00533 25-1210); experiment: in vivo wide-field fluorescence endoscopy of PDO implanted in mouse colon, peptide given intravenously
T2 construct: whole, on cells
Experimental: Cultures were harvested from Matrigel in cold DPBS, triturated 30× with a 1 mL pipette tip, and centrifuged at 300 g for 3 min at 4° C. […] The colonoid fragments were further dissociated by 20× pipetting with a 1 mL pipette tip. […] Slow centrifugation at 100 g was performed to reduce the single cell content. The cell aggregates were resuspended in cold DPBS supplemented with 5% Matrigel and 10 µM Y27632. 1.8×10⁶ cell aggregates in 200 μL were transplanted per mouse as described previously. The implants were monitored over time using a rigid wide-field endoscope and a flexible fiber-coupled endomicroscope to localize the PDO and visualize EGFR expression with sub-cellular resolution.
Organoids grown in vitro (FIG. 17A) were implanted on day 7 post-DSS treatment. For implantation, in vitro grown PDOs were disrupted into smaller aggregates in 200 μL volume and were implanted intrarectally in anesthetized mice. The rectum was closed immediately using tissue glue. After several weeks to establish viability, the implanted PDOs were imaged using a rigid wide-field endoscope. The fluorescently-labeled peptide QRH*-Cy5 was administered intravenously at a dose of 300 μM in 200 μL of PBS.

binding result [1]: binds
B1: RTS*-Cy5.5 (Cy5.5-labeled peptide RTSPSSR) (peptide)
peptide: RTSPSSR
modifications: also: Cy5.5 label, attachment not given here
notes: also called peptide specific for claudin-1

binding result [2]: binds
B2: QRH*-Cy5 (QRHKPRE labeled with Cy5) (peptide)
peptide: QRHKPRE
modifications: also: Cy5 label, attachment not given here
notes: also called Cy5QRH*-Cy5
